# Tests used:
# [1] = target: in vitro translated S38A wee1 (UniProt P47817); test: glutathione precipitation from Xenopus interphase egg extract with nuclei and MG132, wee1 Western blot
# [2] = target: in vitro translated wild-type wee1 (UniProt P47817); test: as above
% of input wee1 precipitated [1],% of input wee1 precipitated [2],% of input wee1 pulled down [2],Substance
8 % of input,8 % of input,–,GST-VCA (GST fusion with the C terminus of the actin nucleating scaffolding protein N-WASP) (from UniProt P08515 1-218)
2.5 % of input,–,25 % of input,GST-Tome-1 (as used in the wee1 binding assay in Xenopus egg extracts) (from UniProt P08515 1-218)
